This experiment deals with DegP^S210A/R207P (Escherichia coli) (UniProt P0C0V0). The experiment is described as follows: fluorescence polarisation.

By Kd is commonly meant the constant that tells how readily two partners part at equilibrium. The substance “^flC18–58, fluorescent peptide derived from residues 18–58 of lysozyme” returned a Kd of 1700 nM.

The record behind these values is paper PMC4003281.
